Measurements: patent US11278600B2, “Human alpha-galactosidase variants” (Codexis, Inc., priority 2014, dated 2022)
Changes are numbered by the printed parent chain.

B1: 98 (protein)
chain: LDNGLARTPTMGWLHWERFMCNLDCQEEPDSCISEKLFMEMAELMVSEGWKDAGYEYLCIDDCWMAPQRDSEGRLQADPQRFPHGIRQLANYVHSKGLKLGIYADVGNKTCAGFPGSFGYYDIDAQTFADWGVDLLKFDGCYCDSLENLADGYKHMSRALNRTGRSIVYSCEWPLYMWPFQKPNYTEIRQYCNHWRNFADIDDSWKSIKSILDWTSFNQERIVDVAGPGGWNDPDMLVIGNFGLSWNQQVTQMALWAIMAAPLFMSNDLRHISPQAKALLQDKDVIAINQDPLGKQGYQLRQGDNFEVWERPLSGLAWAVAMINRQEIGGPRSYTIAVASLGKGVACNPACFITQLLPVKRKLGFYEWTSRLRSHINPTGTVLLQLENTMQMSKDLLL
modifications: Synthetic Polypeptide sequence of Variant No. 98 of mature Human GLA
B2: 33 (protein)
chain: B1 chain with R158L, A199H, E367S
modifications: Synthetic Polypeptide sequence of Variant No. 33 of mature Human GLA
B3: 104 (protein)
chain: B1 chain with R158L, L386V
modifications: Synthetic Polypeptide sequence of Variant No. 104 of mature Human GLA
B4: 101 (protein)
chain: B1 chain with R158L, L316D
modifications: Synthetic Polypeptide sequence of Variant No. 101 of mature Human GLA
B5: 107 (protein)
chain: B1 chain with R158L, K394S
modifications: Synthetic Polypeptide sequence of Variant No. 107 of mature Human GLA
B6: 103 (protein)
chain: B1 chain with R158L, L384F
modifications: Synthetic Polypeptide sequence of Variant No. 103 of mature Human GLA
B7: 105 (protein)
chain: B1 chain with R158L, K394A
modifications: Synthetic Polypeptide sequence of Variant No. 105 of mature Human GLA
B8: 100 (protein)
chain: B1 chain with L23T, R158L
modifications: Synthetic Polypeptide sequence of Variant No. 100 of mature Human GLA
B9: 106 (protein)
chain: B1 chain with R158L, K394R
modifications: Synthetic Polypeptide sequence of Variant No. 106 of mature Human GLA
B10: 102 (protein)
chain: B1 chain with R158L, L316E
modifications: Synthetic Polypeptide sequence of Variant No. 102 of mature Human GLA
B11: 108 (protein)
chain: B1 chain with R158L, K394T
modifications: Synthetic Polypeptide sequence of Variant No. 108 of mature Human GLA
B12: 99 (protein)
chain: B1 chain with L23M, R158L
modifications: Synthetic Polypeptide sequence of Variant No. 99 of mature Human GLA

Experiments:
Assay type in all cases: biochemical
[1] = HTP-analysis of yeast culture supernatants, no challenge (MUGal hydrolysis); details: activity of the variant/activity of WT GLA (SEQ ID NO: 5), yeast supernatant
Outline: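 GLA variants were expressed in INVSc1 yeast grown in SD-Ura broth with glucose at 30° C., and culture supernatants were collected after 66-84 h. Supernatant was mixed with McIlvaine buffer pH 4.8 and MUGal (2 mM stock) in 50 mM citrate, 200 mM KCl, pH 4.6, incubated at 37° C. for 30-180 minutes, then quenched with sodium carbonate.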

[2] = HTP-analysis of supernatants pretreated with acid (MUGal hydrolysis); details: challenge at pH 4.2; activity of the variant/activity of WT GLA (SEQ ID NO: 5); yeast supernatant
Outline: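 Yeast INVSc1 supernatant, GLA variants; acid challenge: McIlvaine pH 3.3-4.3, 37° C., 1-3 h. Assay: MUGal in McIlvaine pH 4.8 plus citrate pH 4.3, 37° C., 30-180 min, Na2CO3 stop, Ex 355/Em 448 nm.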

[3] = HTP-analysis of supernatants pretreated with base (MUGal hydrolysis); details: challenge at pH 7.1; activity of the variant/activity of WT GLA (SEQ ID NO: 5); yeast supernatant
Outline: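 Supernatants from INVSc1 yeast expressing GLA variants (SD-Ura, 66-84 h, 30° C) were mixed with McIlvaine buffer pH 7.0-8.2 or 200 mM sodium bicarbonate pH 9.1-9.7 and held 1-18 h at 37° C. Residual activity was then measured on MUGal at pH 4.8/4.3, 37° C, 30-180 min, by fluorescence (Ex 355/Em 448 nm).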

Molecule | Relative Activity of GLA Variants After No Challenge (NC) [1] | Relative Activity of GLA Variants After Challenge at pH 4.2 [2] | Relative Activity of GLA Variants After Challenge at pH 7.1 [3]
B1 | + (+ = 0.5 to 1.5 relative activity over WT GLA (SEQ ID NO: 5)) | + (+ = 0.5 to 1.5 relative activity over WT GLA (SEQ ID NO: 5)) | + (+ = 0.5 to 1.5 relative activity over WT GLA (SEQ ID NO: 5))
B2 | + (+ = 0.5 to 1.5 relative activity over WT GLA (SEQ ID NO: 5)) | + (+ = 0.5 to 1.5 relative activity over WT GLA (SEQ ID NO: 5)) | + (+ = 0.5 to 1.5 relative activity over WT GLA (SEQ ID NO: 5))
B3 | ++ (++ = >1.5 to 2.5 relative activity over WT GLA (SEQ ID NO: 5)) | ++ (++ = >1.5 to 2.5 relative activity over WT GLA (SEQ ID NO: 5)) | ++ (++ = >1.5 to 2.5 relative activity over WT GLA (SEQ ID NO: 5))
B4 | +++ (+++ = >2.5 relative activity over WT GLA (SEQ ID NO: 5)) | +++ (+++ = >2.5 relative activity over WT GLA (SEQ ID NO: 5)) | +++ (+++ = >2.5 relative activity over WT GLA (SEQ ID NO: 5))
B5 | +++ (+++ = >2.5 relative activity over WT GLA (SEQ ID NO: 5)) | +++ (+++ = >2.5 relative activity over WT GLA (SEQ ID NO: 5)) | +++ (+++ = >2.5 relative activity over WT GLA (SEQ ID NO: 5))
B6 | ++ (++ = >1.5 to 2.5 relative activity over WT GLA (SEQ ID NO: 5)) | ++ (++ = >1.5 to 2.5 relative activity over WT GLA (SEQ ID NO: 5)) | ++ (++ = >1.5 to 2.5 relative activity over WT GLA (SEQ ID NO: 5))
B7 | +++ (+++ = >2.5 relative activity over WT GLA (SEQ ID NO: 5)) | ++ (++ = >1.5 to 2.5 relative activity over WT GLA (SEQ ID NO: 5)) | ++ (++ = >1.5 to 2.5 relative activity over WT GLA (SEQ ID NO: 5))
B8 | + (+ = 0.5 to 1.5 relative activity over WT GLA (SEQ ID NO: 5)) | + (+ = 0.5 to 1.5 relative activity over WT GLA (SEQ ID NO: 5)) | + (+ = 0.5 to 1.5 relative activity over WT GLA (SEQ ID NO: 5))
B9 | ++ (++ = >1.5 to 2.5 relative activity over WT GLA (SEQ ID NO: 5)) | ++ (++ = >1.5 to 2.5 relative activity over WT GLA (SEQ ID NO: 5)) | +++ (+++ = >2.5 relative activity over WT GLA (SEQ ID NO: 5))
B10 | +++ (+++ = >2.5 relative activity over WT GLA (SEQ ID NO: 5)) | +++ (+++ = >2.5 relative activity over WT GLA (SEQ ID NO: 5)) | +++ (+++ = >2.5 relative activity over WT GLA (SEQ ID NO: 5))
B11 | +++ (+++ = >2.5 relative activity over WT GLA (SEQ ID NO: 5)) | +++ (+++ = >2.5 relative activity over WT GLA (SEQ ID NO: 5)) | +++ (+++ = >2.5 relative activity over WT GLA (SEQ ID NO: 5))
B12 | + (+ = 0.5 to 1.5 relative activity over WT GLA (SEQ ID NO: 5)) | + (+ = 0.5 to 1.5 relative activity over WT GLA (SEQ ID NO: 5)) | + (+ = 0.5 to 1.5 relative activity over WT GLA (SEQ ID NO: 5))
